Assay results from patent publication US20130243795A1 (Janssen / Centocor, published 2013).
Numbering of substitutions follows the chain as printed. Like-named read-outs stand apart in the source and are kept apart here.

Experiments:
[1] = target: T1, Human CD27 ECD, monomeric soluble (construct limits not stated) (human, UniProt P26842 20-191); assay: Biacore SPR, purified mAb
T1 construct: extracellular domain; target of the Biacore assays; also called monomeric soluble CD27; CD27-His

[2] = target: T2, Human CD27, full length on the cell surface (human, UniProt P26842 21-260); assay: cell-based or functional assay
[3] = target: T3, Human CD27 ECD (ECD 1-173, His6) (human, UniProt P26842 21-193, biotinylated on amine residues (NHS-ester) where used biotinylated); assay: Fab format, pIX display and binding
T3 construct: also called biotinylated human CD27 ECD

[4] = target: T4, Human CD27 ECD truncated (ECD 1-121, cleavage site, His6) (human); assay: ProteOn SPR, purified mAb, CD27-His
T4 construct: also called human CD27 ECD with His Tag; CD27-His
T4 chain: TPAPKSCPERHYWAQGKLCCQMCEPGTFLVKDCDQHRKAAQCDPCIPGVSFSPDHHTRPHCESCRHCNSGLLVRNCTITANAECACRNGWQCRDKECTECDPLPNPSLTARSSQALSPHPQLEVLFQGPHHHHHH

[5] = target: T4, Human CD27 ECD truncated (ECD 1-121, …); assay: ProteOn SPR, purified mAb, CD27-His
[6] = target: T4, Human CD27 ECD truncated (ECD 1-121, …); assay: ELISA of culture supernatants; binding to CD27 ECD; signal relative to the parent
[7] = target: T4, Human CD27 ECD truncated (ECD 1-121, …); assay: ProteOn SPR; mAb captured via anti-human Fc; CD27 ECD as analyte
[8] = target: T2, Human CD27, full length on the cell …; assay: cell-based or functional assay; remark: listed apart in the source
[9] = target: T2, Human CD27, full length on the cell …; assay: cell-based or functional assay; remark: listed apart in the source
[10] = target: T5, Recombinant human CD27/Fc chimera (R&D Systems, Cat#382-CD) (human, UniProt P26842 20-191); assay: inhibition of IM-9 (CD70+) cell binding to immobilized CD27/Fc
T5 construct: extracellular domain; bought protein; also called huCD27-Fc; Hu CD27 Fc; Fc part of the bought chimera not given

[11] = target: T1, Human CD27 ECD, monomeric soluble …; assay: Biacore SPR; mAb captured via anti-mouse Fc; CD27 ECD as analyte; 25 C
[12] = target: T2, Human CD27, full length on the cell …; assay: cell-based or functional assay; remark: listed apart in the source
[13] = target: T1, Human CD27 ECD, monomeric soluble …; assay: Biacore SPR, purified mAb, CD27 ECD
[14] = target: T2, Human CD27, full length on the cell …; assay: cell-based or functional assay; remark: listed apart in the source
[15] = target: T2, Human CD27, full length on the cell …; assay: cell-based or functional assay; remark: listed apart in the source
[16] = target: T1, Human CD27 ECD, monomeric soluble …; assay: Biacore SPR, purified mAb; remark: listed apart in the source

T5 sequence (P26842 20-191, change not shown): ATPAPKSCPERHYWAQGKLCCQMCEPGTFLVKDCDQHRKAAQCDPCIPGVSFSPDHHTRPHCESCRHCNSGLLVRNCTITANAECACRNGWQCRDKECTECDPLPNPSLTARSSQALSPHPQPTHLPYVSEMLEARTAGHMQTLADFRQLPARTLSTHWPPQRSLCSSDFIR
T1 sequence (P26842 20-191): as the sequence (P26842 20-191, change not shown) above

B1: M713 (antibody, V domains shown)
VH: QVQLVQSGAEVKKPGASVKVSCKASGYAFSSSWMNWVRQAPGQGLEWMGRIYSGDADTNYAQKFKGRVTMTRDTSTSTVYMELSSLRSEDTAVYYCARSDYYGDYGFAYWGQGTLVTVSS
VL: DIQMTQSPSSLSASVGDRVTITCKASQSVDYAGESFMNWYQQKPGKAPKLLIYAASNLESGVPSRFSGSGSGTDFTLTISSLQPEDFATYYCQQSNEDPYTFGQGTKVEIK
notes: also called single-gene DNA ID 713
Q: Which results are given for B1?
A: Kd [1]: 0.056 nM; koff [1]: 1.16e-05 s⁻¹; kon [1]: 206000 M⁻¹ s⁻¹; NF-kB Assay IC50 [2]: 0.296 nM

B2: M55 (VH1-46/Vk012 HFR Fab of C2177) (Fab, V domains shown)
VH: B1 VH with S53P, A56G, A61N, Q62G
VL: B1 VL with E34D, F36Y, V108L
notes: Fab with human CH1 and Ck in the pIX phage display vector; also called H25/L36; parent HFR Fab
Q: Does B2 bind [3]?
A: binds

B3: M668 (antibody, V domains shown)
VH: B1 VH
VL: B1 VL
notes: isotype not restated (path 2); also called H255,L266
Q: For B3, which “fold lower KD against the parental mAb M160” value [4] is on record?
A: ~2 fold

Q: What about the Kd [5] of the same binder?
A: 0.06 nM

Q: What about the koff [5] of the same binder?
A: 0.000129 s⁻¹

Q: What about the kon [5] of the same binder?
A: 2.14e+06 M⁻¹ s⁻¹

B4: M91 (antibody, human IgG1, V domains shown)
VH: QVQLVESGGGLVKPGGSLRLSCAASGFTFSSYTMSWIRQAPGKGLEWVSYISSGGGNTYYPDSVKGRFTISRDNAKNSLYLQMNSLRAEDTAVYYCARHRGNPFDYWGQGTLVTVSS
VL: DIQMTQSPSSLSASVGDRVTITCRASKSVSTSGYSFMHWYQQKPGKAPKLLIYLASNLESGVPSRFSGSGSGTDFTFTISSLQPEDIATYYCQHSRELPWTFGQGTKVEIK
notes: also called H31/L42; C2191 HFR variant
Q: What does the source list for B4?
A: ELISA signal [6]: 1.09; Kd [7]: 7.9 nM; NFkB IC50 [8]: 0.28 nM

B5: Parent Fab (VH3-23/Vk012 HFR Fab of C2191) (Fab, V domains shown)
VH: B4 VH with Q1E, V5L, K13Q, I37V, A75S, S78T
VL: B4 VL with F77L, I87F
notes: Fab with human CH1 and Ck in the pIX phage display vector; also called H39/L40; parental HFR Fab
Q: Does B5 bind [3]?
A: binds

B6: C2186 (antibody, V domains shown)
VH: QVQLQQPGAELVKPGASVKLSCKASGYTFTNYWMNWVKQRPGRGLEWIGRIHPSDSETHYNQNFKSKATLTVDKSSSTAYIQLSSLTSEDSAVYYCARPVLYGDYGFPCWGQGTLVTVSA
VL: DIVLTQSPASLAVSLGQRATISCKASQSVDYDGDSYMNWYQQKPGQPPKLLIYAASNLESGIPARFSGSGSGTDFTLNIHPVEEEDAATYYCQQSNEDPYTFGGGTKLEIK
Q: Which “Agonism at 50 ug/ml (fold-increase in reporter gene signal relative to isotype control)” value [9] does the source give for B6 here?
A: 2.55 fold

Q: And the “NF-kB reporter IC50” value [9]?
A: 0.105 µg/mL

Q: What about the IC50 [10] of the same binder?
A: 0.059 µg/mL

Q: What about the Kd [11] of the same binder?
A: 2.55 nM

Q: What about the “Plasma blast differentiation % Inhibition at 2.5 ug/ml” value [12] of the same binder?
A: 93%

Q: And the “T-Cell Proliferation % Inhibition at highest concentration (30 ug/ml)” value (“T-Cell Proliferation % Inhibition” for short) [12]?
A: 65.3%

Q: And the “T-Cell Proliferation - CD4+ Cells IC50” value [12]?
A: 0.775 µg/mL

B7: C2191 (antibody, V domains shown)
VH: EVKLVESGGGLVKPGGSLKLSCAASGFTFSSYTMSWVRQTPEKRLEWVAYISSGGGNTYYPDSVKGRFTISRDNARNTLYLQMSSLRSEDTAMYYCSRHRGNPFDYWGQGTTLTVSS
VL: DIVLTQSPASLAVSLGQRATISCRASKSVSTSGYSFMHWYQQKPGQPPKLLIYLASNLESGVPARFSGSGSGTDFTLNIHPVEEEDAATYYCQHSRELPWTFGGGTKLEIK
notes: also called C2191 hybridoma mAb
Q: With B7 as the binder, how does the “Agonism at 50 ug/ml (fold-increase in reporter gene signal relative to isotype control)” value [9] read?
A: 3.05 fold

Q: What about the “NF-kB reporter IC50” value [9] of the same binder?
A: 0.08 µg/mL

Q: And the IC50 [10]?
A: 0.059 µg/mL

Q: What about the Kd [11] of the same binder?
A: 2.62 nM

Q: And the “Plasma blast differentiation % Inhibition at 2.5 ug/ml” value [12]?
A: 105%

Q: What about the “T-Cell Proliferation % Inhibition” value [12] of the same binder?
A: 58.3%

Q: And the “T-Cell Proliferation - CD4+ Cells IC50” value [12]?
A: 0.3 µg/mL

B8: M41 (antibody, human IgG1, V domains shown)
VH: B7 VH
VL: B7 VL
notes: chimeric; also called C2191 parent; C2191 parent chimera
Q: For B8, which Kd [13] is on record?
A: 13.7 nM

Q: And the ELISA signal [6]?
A: 1

Q: What about the “NF-kB Assay IC50” value [14] of the same binder?
A: 2.3 nM

Q: What about the Kd [7] of the same binder?
A: 10.3 nM

Q: And the “NFkB IC50” value [15]?
A: 0.045 nM

Q: And the “NFkB IC50” value [8]?
A: 0.3 nM

Q: And the Kd [16]?
A: 23.7 nM

Q: What about the koff [16] of the same binder?
A: 0.0103 s⁻¹

Q: What about the kon [16] of the same binder?
A: 435000 M⁻¹ s⁻¹

B9: C2177 (antibody, V domains shown)
VH: QVQLQQSGPELVKPGASVKISCKASGYAFSSSWMNWVKQRPGKGLEWIGRIYPGDGDTNYNGKFKGKATLTADKSSSTAYMQLSSLTSEDSAVYFCARSDYYGDYGFAYWGQGTLVTVSA
VL: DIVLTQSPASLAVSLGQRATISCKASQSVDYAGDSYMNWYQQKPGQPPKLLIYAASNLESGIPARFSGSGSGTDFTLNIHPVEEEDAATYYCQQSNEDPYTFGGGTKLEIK
notes: also called C2177 hybridoma mAb
Q: With B9 as the binder, how does the “Agonism at 50 ug/ml (fold-increase in reporter gene signal relative to isotype control)” value [9] read?
A: 1.85 fold

Q: And the “NF-kB reporter IC50” value [9]?
A: 0.04 µg/mL

Q: And the IC50 [10]?
A: 0.063 µg/mL

Q: And the Kd [11]?
A: 3.07 nM

Q: What about the “Plasma blast differentiation % Inhibition at 2.5 ug/ml” value [12] of the same binder?
A: 78%

Q: And the “T-Cell Proliferation % Inhibition” value [12]?
A: 75.4%

Q: What about the “T-Cell Proliferation - CD4+ Cells IC50” value [12] of the same binder?
A: 0.245 µg/mL

B10: M40 (antibody, human IgG1, V domains shown)
VH: B9 VH
VL: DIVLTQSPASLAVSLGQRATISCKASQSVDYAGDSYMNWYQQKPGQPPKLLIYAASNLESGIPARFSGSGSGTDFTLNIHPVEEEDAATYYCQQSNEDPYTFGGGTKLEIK
notes: chimeric; also called C2177 parent; C2177 parent chimera
Q: Which Kd [1] does the source give for B10 here?
A: 1.24 nM

Q: And the koff [1]?
A: 0.00132 s⁻¹

Q: And the kon [1]?
A: 1.06e+06 M⁻¹ s⁻¹

Q: What about the ELISA signal [6] of the same binder?
A: 1

Q: What about the Kd [7] of the same binder?
A: 0.96 nM

Q: And the “NF-kB Assay IC50” value [2]?
A: 0.466 nM

Q: What about the “NFkB IC50” value [8] of the same binder?
A: 0.14 nM

B11: C2192 (antibody, V domains shown)
VH: B9 VH with S99R, D100W, Y101D, Y102G, D104N, G106F, A108D, L115T, V116L, A120S
VL: DIVMTQSHKFMSTSVGDRVSITCMASQDVGTAVAWYQRRPGQSPKLLIYWTSTRHTGVPDRFTGSGSGTDFTLTISNVQSEDLADYFCQQYSSYPLTFGSGTKLEIK
Q: Which “Agonism at 50 ug/ml (fold-increase in reporter gene signal relative to isotype control)” value [9] does the source give for B11 here?
A: 5.39 fold

Q: And the “NF-kB reporter IC50” value [9]?
A: 0.232 µg/mL

Q: What about the IC50 [10] of the same binder?
A: 0.054 µg/mL

Q: And the Kd [11]?
A: 0.21 nM

Q: And the “Plasma blast differentiation % Inhibition at 2.5 ug/ml” value [12]?
A: 74%

Q: What about the “T-Cell Proliferation % Inhibition” value [12] of the same binder?
A: 75.7%

Q: And the “T-Cell Proliferation - CD4+ Cells IC50” value [12]?
A: 0.445 µg/mL

B12: M69 (antibody, human IgG1, V domains shown)
VH: EVQLVQSGAEVKKPGESLKISCKGSGYAFSSSWMNWVRQMPGKGLEWMGRIYPGDGDTNYSPSFQGQVTISADKSISTAYLQWSSLKASDTAMYYCARSDYYGDYGFAYWGQGTLVTVSS
VL: DIVMTQSPDSLAVSLGERATINCKASQSVDYAGDSYMNWYQQKPGQPPKLLIYAASNLESGVPDRFSGSGSGTDFTLTISSLQAEDVAVYYCQQSNEDPYTFGQGTKLEIK
notes: also called H28/L35; C2177 HFR variant
Q: How did the ELISA signal [6] turn out when B12 was run?
A: 1.09

Q: And the Kd [7]?
A: 0.77 nM

Q: And the “NFkB IC50” value [8]?
A: 0.11 nM

B13: M671 (antibody, V domains shown)
VH: B12 VH with P53S, G56A, S61N, P62Q, S63K, Q65K
VL: B1 VL
notes: isotype not restated (path 2); also called H258,L266
Q: B13 was tested. Which “fold lower KD against the parental mAb M169” value [4] did it give?
A: ~2 fold

Q: What about the Kd [5] of the same binder?
A: 0.039 nM

Q: What about the koff [5] of the same binder?
A: 9.73e-05 s⁻¹

Q: What about the kon [5] of the same binder?
A: 2.52e+06 M⁻¹ s⁻¹

B14: M711 (antibody, V domains shown)
VH: B12 VH with P53S, G56A, S61N, P62Q, S63K, Q65K
VL: B1 VL
notes: also called single-gene DNA ID 711
Q: With B14 as the binder, how does the Kd [1] read?
A: 0.03 nM

Q: What about the koff [1] of the same binder?
A: 5.82e-05 s⁻¹

Q: And the kon [1]?
A: 1.97e+06 M⁻¹ s⁻¹

Q: And the “NF-kB Assay IC50” value [2]?
A: 0.258 nM
